Numbering of substitutions follows the chain as printed. Each block holds one binder with its values, some of them ahead of it.
Key:
[1] = biological target: T1, human epidermal growth factor receptor 2 (HER2) (human, UniProt P04626 23-1255); assay: cell-based or functional assay
[2] = biological target: T1, human epidermal growth factor receptor …; assay: flow cytometry on A431 cells (low HER2), PE-goat anti-human IgG, MFI; EC50 by non-linear regression (Example 12)
Method: (§1) Binding of HER2 antibodies was detected using a Phycoerythrin (PE)-conjugated goat-anti-human IgG antibody (Jackson). […] EC₅₀ values were determined by means of non-linear regression (sigmoidal dose-response with variable slope) using GraphPad Prism V4.03 software (GraphPad Software, San Diego, Calif., USA).

[3] = biological target: T1, human epidermal growth factor receptor …; assay: flow cytometry on AU565 cells (high HER2), PE-goat anti-human IgG, MFI; EC50 by non-linear regression (Example 12)
Method: as §1

[4] = biological target: T1, human epidermal growth factor receptor …; assay: flow cytometry on A431 cells (low HER2), PE-goat anti-human IgG, MFI; EC50 by non-linear regression (Example 12); remark: listed apart in the source
Method: as §1

[5] = biological target: T1, human epidermal growth factor receptor …; assay: flow cytometry on AU565 cells (high HER2), PE-goat anti-human IgG, MFI; EC50 by non-linear regression (Example 12); remark: listed apart in the source
Method: as §1

[6] = biological target: T1, human epidermal growth factor receptor …; assay: flow cytometry on A431 cells (low HER2), PE-goat anti-human IgG, MFI; EC50 by non-linear regression (Example 12); remark: listed apart in the source
Method: as §1

[7] = biological target: T1, human epidermal growth factor receptor …; assay: flow cytometry on AU565 cells (high HER2), PE-goat anti-human IgG, MFI; EC50 by non-linear regression (Example 12); remark: listed apart in the source
Method: as §1

B3: HER2 HuMab 005 (antibody, human IgG1, V domains shown)
VH: EVQLVQSGAEVKKPGESLKISCKASGYSFHFYWIGWVRQMPGKGLEWMGSIYPGDSDTRYRPSFQGQVTISADKSISTAYLQWTSLKASDTAIYYCARQRGDYYYFYGMDVWGQGTTVTVSS
VL: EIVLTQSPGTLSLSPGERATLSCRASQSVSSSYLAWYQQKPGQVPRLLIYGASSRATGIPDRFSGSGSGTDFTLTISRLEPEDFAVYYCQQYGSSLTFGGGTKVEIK
notes: Human IgG1,κ; also called PC1014-005; TH1014-005
EC50, fab-CypHer5E internalization assay, AU565 cells [1]: 0.0214 µg/mL
Maximal MFI, fab-CypHer5E internalization assay, AU565 cells [1]: 95100 MFI
EC50 [6]: 0.789 µg/mL
EC50 [7]: 0.818 µg/mL

B5: HER2 HuMab 084 (antibody, V domains shown)
VH: QVQLVQSGAEVKKPGSSVKVSCKASGGTFRTYAINWVRQAPGQGLEWMGRINTVLGIVNHAQKFQGRVTITADKSTNTAYMELNSLRSEDTAVYYCAREKGVDYYYGIEVWGQGTTVTVSS
VL: DIQMTQSPSSVSASVGDRVTITCRASQGISSWLAWYQHKPGKAPKLLIYVASTLQSGVPSRFSGSGSGTDFTLTISSLQPEDFATYYCQQANSFPLTFGGGTKVEIK
notes: also called PC1014-084
EC50, fab-CypHer5E internalization assay, AU565 cells [1]: 0.0305 µg/mL
Maximal MFI, fab-CypHer5E internalization assay, AU565 cells [1]: 71100 MFI
EC50 [2]: 0.498 µg/mL
EC50 [3]: 0.491 µg/mL

B6: HER2 HuMab 025 (antibody, V domains shown)
VH: QVQLQQWGAGLLKPSETLSLTCAVYGGSFSDYYWNWIRQPPGKGLEWIGEIHHSGSTNYNPSLKSRVTISVDTSKNQFSLKLSSVTAADTAVYYCARGYYDSGVYYFDYWAQGTLVTVSS
VL: DIQMTQSPSSLSASVGDRVTITCRASQGISRWLAWYQQKPEKAPKSLIYAASSLRSGVPSRFSGSGSGTDFTLTISSLQPEDFATYYCQQYNSYPITFGQGTRLEIK
notes: also called PC1014-025; TH1014-025
EC50, fab-CypHer5E internalization assay, AU565 cells [1]: 0.0301 µg/mL
Maximal MFI, fab-CypHer5E internalization assay, AU565 cells [1]: 63400 MFI
EC50 [2]: 0.128 µg/mL
EC50 [3]: 0.58 µg/mL

B7: HER2 HuMab 098 (antibody, V domains shown)
VH: EVQLLESGGGLVQPGGSLRLSCAASGFTFSNYGMSWVRQAPGKGLEWVSAISGSAYSTYYADSVKGRFTISRDNSKNTLWLQMNSLRAEDTAVYYCAKAHYHGSGSYYTLFDYWGQGTLVTVSS
VL: B6 VL with R31S, R55Q, I96Y, R103K
notes: also called PC1014-098; TH1014-098
EC50, fab-CypHer5E internalization assay, AU565 cells [1]: 0.0138 µg/mL
Maximal MFI, fab-CypHer5E internalization assay, AU565 cells [1]: 135000 MFI
EC50 [2]: 0.101 µg/mL
EC50 [3]: 0.336 µg/mL

B8: HER2 HuMab 050 (antibody, V domains shown)
VH: EVQLLESGGGLVQPGGSLRLSCAASGFTFSSYAMNWVRQAPGKGLEWVSAISGRGGTTYYADSVKGRFTISRDNSKNTLYLQMSSLRAEDTAVYYCAKARANWDYFDYWGQGTLVTVSS
VL: B5 VL with V50A, T53I, L96I, G100Q, K103R, V104L
notes: also called PC1014-050
EC50 [2]: 1.14 µg/mL
EC50 [3]: 0.722 µg/mL

B10: HER2 HuMab 091 (antibody, V domains shown)
VH: QVQLQQWGAGLLKPSETLSLTCAVSGGSFSGYYWTWIRQPPGKGLEWIGEIYHSGDTNYNPSLKSRVTISVDTSKNQFSLKLYSVTAADTAVYYCARLYFGSGIYYLDYWGQGTLVTVSS
VL: B6 VL with R31S, A34V, R55Q, Y94F, I96P, R103K, L104V
notes: also called PC1014-091
EC50, fab-CypHer5E internalization assay, AU565 cells [1]: 0.033 µg/mL
Maximal MFI, fab-CypHer5E internalization assay, AU565 cells [1]: 50700 MFI
EC50 [2]: 0.633 µg/mL
EC50 [3]: 0.965 µg/mL

B11: HER2 HuMab 060 (antibody, V domains shown)
VH: EVQLVQSGAEVKKPGESLKISCKGSGYRFTSYWIGWVRQMPGKGLEWMGSIYPGDSYTRNSPSFQGQVTISADKSIATAYLQWNSLKASDTAMYYCARHAGDFYYFDGLDVWGQGTTVTVSS
VL: not shown
notes: also called PC1014-060
EC50, fab-CypHer5E internalization assay, AU565 cells [1]: 0.0362 µg/mL
Maximal MFI, fab-CypHer5E internalization assay, AU565 cells [1]: 68200 MFI
EC50 [6]: 1.98 µg/mL
EC50 [7]: 2.68 µg/mL

B14: HER2 HuMab 059 (antibody, V domains shown)
VH: QVQLVQSGAEVKKPGASVRVPCKASGYTFTRYGISWVRQAPGQGLEWMGWISAYNGKTYYAQKLQGRVTMTTDTSTSTAYMELRSLRSDDTAVYYCARSPLLWFEELYFDYWGQGTLVTVSS
VL: EIVLTQSPGTLSLSPGERATLSCRASQSVSSTYLAWYQQKPGQAPRLLIYGASSRATGIPDRFSGSGSGTDFTLTISRLEPEDFAVYYCQQYGTSLFTFGPGTKVDIK
notes: also called PC1014-059
EC50, fab-CypHer5E internalization assay, AU565 cells [1]: 0.0148 µg/mL
Maximal MFI, fab-CypHer5E internalization assay, AU565 cells [1]: 77100 MFI
EC50 [6]: 0.213 µg/mL
EC50 [7]: 1.31 µg/mL

The remaining lines, values ahead:

EC50, fab-CypHer5E internalization assay, AU565 cells [1]: ~0.00968 µg/mL
Maximal MFI, fab-CypHer5E internalization assay, AU565 cells [1]: 138000 MFI
EC50 [2]: 0.27 µg/mL
EC50 [3]: 2.29 µg/mL
B1: HER2 HuMab 127 (antibody, V domains shown)
VH: EVQLVQSGAEVKKPGESLTISCKGSGYSFSIYWIGWVRQMPGKGLEWMGIIFPGDSDIRYSPSFQGQVTISADKSISTAYLQWSSLKASDTAMYYCARQPGDWSPRHWYFDLWGRGTLVTVSS
VL: VIWMTQSPSLLSASTGDRVTISCRMSQGISSYLAWYQQKPGKAPELLIYAASTLQSGVPSRFSGSGSGTDFTLTISYLQSEDFATYYCQQYYSFPLTFGGGTKVEIK

EC50, fab-CypHer5E internalization assay, AU565 cells [1]: 0.0114 µg/mL
Maximal MFI, fab-CypHer5E internalization assay, AU565 cells [1]: 112000 MFI
EC50 [4]: 0.068 µg/mL
EC50 [5]: 0.911 µg/mL
B2: HER2 HuMab 132 (antibody, V domains shown)
VH: QVQLVQSGAEVKKPGASVKVSCKASGYTFTSYGISWVRQAPGQGLEWMGWISAYNGNSNYVQKFQGRVTMTTDTTTSTAYMELRSLTSDDTAVYYCAREYSYDSGTYFYYGMDVWGQGTTVTVSS
VL: EIVLTQSPATLSLSPGERATLSCRASQSVSSYLAWYQQKPGQAPRLLIYDASNRATGIPARFSGSGSGTDFTLTISSLEPEDFAVYYCQQRSNWPMYTFGQGTKLEIK
notes: also called PC1014-132

EC50, fab-CypHer5E internalization assay, AU565 cells [1]: 0.0352 µg/mL
Maximal MFI, fab-CypHer5E internalization assay, AU565 cells [1]: 81700 MFI
EC50 [6]: 0.996 µg/mL
EC50 [7]: 0.915 µg/mL
B4: HER2 HuMab 111 (antibody, V domains shown)
VH: QVQLVQSGAEVKKPGSSVKVSCKASGGTFSSYGISWVRQAPGPGLEWMGRIIPILGIANYAQKFQGRVTITADKSTNTAYMELSSLRSEDTAVYYCARDQEYSSNWYYWGQGTLVTVSS
VL: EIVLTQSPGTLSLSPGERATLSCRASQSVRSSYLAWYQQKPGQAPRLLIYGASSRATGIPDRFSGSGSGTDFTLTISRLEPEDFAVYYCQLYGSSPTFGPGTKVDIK
notes: also called PC1014-111

Maximal MFI, fab-CypHer5E internalization assay, AU565 cells [1]: 92400 MFI
EC50 [4]: 0.855 µg/mL
EC50 [5]: 1.3 µg/mL
B9: HER2 HuMab 159 (antibody, V domains shown)
VH: EVQLVQSGAEVKKPGESLKISCKGSGYNFTSYWIGWVRQMPGKGLEWMGIIYPGDSDTRYSPSFQGQVTISADKSISTAYLQWSSLKASDTAMYYCARWGTYYDILTGYFNWFDPWGQGTLVTVSS
VL: B6 VL with R31S, R55Q, N92Y, S93I, I96W, R103K, L104V
notes: also called PC1014-159

Maximal MFI, fab-CypHer5E internalization assay, AU565 cells [1]: 38800 MFI
EC50 [4]: 0.415 µg/mL
EC50 [5]: 0.908 µg/mL
B12: HER2 HuMab 169 (antibody, V domains shown)
VH: QVQLVQSGAEVKKPGASVKVSCKASGYTFTNYGISWVRQAPGQGLEWMGWLSAYSGNTIYAQKLQGRVTMTTDTSTTTAYMELRSLRSDDTAVYYCARDRIVVRPDYFDYWGQGTLVTVSS
VL: EIVLTQSPATLSLSPGERATLSCRASQSVSSYLAWYQQKPGQAPRLLIYDASNRATGIPARFSGSGSGTDFTLTISSLEPEDFAVYYCQQRSNWPRTFGQGTKVEIK

EC50, fab-CypHer5E internalization assay, AU565 cells [1]: 0.00715 µg/mL
Maximal MFI, fab-CypHer5E internalization assay, AU565 cells [1]: 60300 MFI
EC50 [4]: 0.316 µg/mL
EC50 [5]: 0.578 µg/mL
B13: HER2 HuMab 129 (antibody, V domains shown)
VH: QVQLVESGGGVVQPGRSLRLSCAASGFTFSTFAIHWVRQAPGKGLEWVAVISYDGGHKFYADSVKGRFTISRDNSKNTLYLQMNSLRAEDTAMYYCARGLGVWGAFDYWGQGTLVTVSS
VL: EIVLTQSPATLSLSPGERATLSCRASQSVSSYLAWYQQKPGQAPRLLIYDASNRATGIPARFSGSGSGTDFTLTISSLEPEDFAVYYCQQRSNWWTFGQGTKVEIK
notes: also called PC1014-129

— patent publication US20140170149A1 (Genmab, published 2014)
